Experimental data as given in US20240116985A1 (published 2024).
Starred links: 1 amine or outer side, 2 acyl side, 3 side chain; linkers in the order of their positions; H or OH if unused. Positions of bridges follow the written chain, without caps; N, C: chain ends. Non-standard residues stand in square brackets, D forms with d. Primed or numbered codes have the meaning given here. *: point of attachment. PyrS2(3) = (S)-3-amino-1-((pent-4-en-1-yloxy)carbonyl)pyrrolidine-3-carboxylic acid, stapling residue, C=CCCCOC(=O)N1CC[C@@](N[*:1])(C(=O)[*:2])C1; PyrS2″ = (S)-3-amino-1-((pent-4-en-1-yloxy)carbonyl)pyrrolidine-3-carboxylic acid (stapling residue), C=CCCCOC(=O)N1CC[C@@](N[*:1])(C(=O)[*:2])C1; B5(4) = 2,2-bis(4-pentenyl)glycine = 2-amino-2-(pent-4-en-1-yl)hept-6-enoic acid (stitching residue), C=CCCCC(CCCC=C)(N[*:1])C(=O)[*:2]; B5(5) = 2,2-bis(4-pentenyl)glycine, 2-amino-2-(pent-4-en-1-yl)hept-6-enoic acid (stitching residue), C=CCCCC(CCCC=C)(N[*:1])C(=O)[*:2]; B5(6) = 2-amino-2-(pent-4-en-1-yl)hept-6-enoic acid (bis(4-pentenyl)glycine), stitching residue, C=CCCCC(CCCC=C)(N[*:1])C(=O)[*:2]; TfeGA = (S)-2-amino-3-((carboxymethyl)(2,2,2-trifluoroethyl)amino)propanoic acid, O=C([C@H](CN(CC(=O)[*:3])CC(F)(F)F)N[*:1])[*:2]; PyrS2 = (S)-3-amino-1-((pent-4-en-1-yloxy)carbonyl)pyrrolidine-3-carboxylic acid, C=CCCCOC(=O)N1CC[C@@](N[*:1])(C(=O)[*:2])C1; PyrS3 = (S)-3-amino-1-((hex-5-en-1-yloxy)carbonyl)pyrrolidine-3-carboxylic acid, C=CCCCCOC(=O)N1CC[C@@](N[*:1])(C(=O)[*:2])C1; B5(13) = 2-amino-2-(pent-4-en-1-yl)hept-6-enoic acid (two alkene chains), C=CCCCC(CCCC=C)(N[*:1])C(=O)[*:2]; B5(3) = 2,2-bis(4-pentenyl)glycine (stitching residue), C=CCCCC(CCCC=C)(N[*:1])C(=O)[*:2]; B5″ = 2,2-bis(4-pentenyl)glycine, stitching residue, C=CCCCC(CCCC=C)(N[*:1])C(=O)[*:2]; mPEG2 = N-terminal 3-(2-methoxyethoxy)propanoic acid, COCCOCCC(=O)*; Phe(2-CN) = N#Cc1ccccc1C[C@H](N)C(=O)O; Phe(2-Cl) = N[C@@H](Cc1ccccc1Cl)C(=O)O; Phe(2-OMe) = COc1ccccc1C[C@H](N)C(=O)O; 1Nal = N[C@@H](Cc1cccc2ccccc12)C(=O)O; 2Nal = N[C@@H](Cc1ccc2ccccc2c1)C(=O)O; Phe(2-Me) = Cc1ccccc1C[C@H](N)C(=O)O; Bta = N[C@@H](Cc1csc2ccccc12)C(=O)O; αAllylPro = C=CC[C@@]1(C(=O)O)CCCN1; tBuAla = CC(C)(C)C[C@H](N)C(=O)O; 2Thi = N[C@@H](Cc1cccs1)C(=O)O; 3Thi = N[C@@H](Cc1ccsc1)C(=O)O; S8 = C=CCCCCCC[C@](C)(N)C(=O)O; Thr(ol) = C[C@@H](O)[C@H](N)CO; hLeu = CC(C)CC[C@H](N)C(=O)O; Alaol = C[C@@H](CO)N*; Ms = CS(=O)(=O)*

T1: B-cat-Halo (UniProt P35222 1-781)
T1 sequence (looked up): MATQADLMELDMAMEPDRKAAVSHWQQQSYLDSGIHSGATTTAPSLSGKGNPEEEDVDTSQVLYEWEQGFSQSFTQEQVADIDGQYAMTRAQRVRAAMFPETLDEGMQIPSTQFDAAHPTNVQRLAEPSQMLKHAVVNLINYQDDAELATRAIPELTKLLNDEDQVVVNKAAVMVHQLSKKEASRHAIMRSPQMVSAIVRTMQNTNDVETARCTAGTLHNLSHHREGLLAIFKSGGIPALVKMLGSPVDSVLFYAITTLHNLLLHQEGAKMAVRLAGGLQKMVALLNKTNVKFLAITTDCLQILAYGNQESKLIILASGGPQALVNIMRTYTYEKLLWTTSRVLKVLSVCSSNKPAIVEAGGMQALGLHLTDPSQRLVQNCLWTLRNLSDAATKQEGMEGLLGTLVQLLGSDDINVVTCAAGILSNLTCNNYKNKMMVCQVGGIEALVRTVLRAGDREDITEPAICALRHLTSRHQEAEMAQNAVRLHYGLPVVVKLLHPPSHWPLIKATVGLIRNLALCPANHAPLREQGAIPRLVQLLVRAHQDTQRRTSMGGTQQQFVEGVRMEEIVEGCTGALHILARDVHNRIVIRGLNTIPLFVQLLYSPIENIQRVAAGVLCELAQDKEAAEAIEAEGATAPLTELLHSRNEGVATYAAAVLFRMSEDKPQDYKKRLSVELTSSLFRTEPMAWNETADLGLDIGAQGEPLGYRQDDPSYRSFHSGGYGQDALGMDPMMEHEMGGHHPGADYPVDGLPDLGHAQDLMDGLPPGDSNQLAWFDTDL

T2: B-cat-Halo (UniProt P35222 1-781)
T2 sequence (looked up): T1 sequence (looked up)

T3: full-length beta-Catenin (Uniprot ID P35222) (Homo sapiens (Human), UniProt P35222 1-781)
T3 construct: The assay protocol says full-length beta-Catenin (Uniprot ID P35222); tags are not described; also called bCat; B-Catenin
T3 sequence: T1 sequence (looked up)

B1: I-1220 (peptide)
peptide: Ac-[αAllylPro]N[tBuAla][B5(4)]DDAAFN[PyrS2″][3Thi][Bta]Q-NH2
modifications: staple 1-4, 4-11
B2: I-1207 (peptide)
peptide: Ac-[αAllylPro]D[tBuAla][B5″]NDAAFL[PyrS2(3)][3Thi][Bta]Q-NH2
modifications: staple 1-4, 4-11
B3: I-1206 (peptide)
peptide: Ac-[αAllylPro]D[tBuAla][B5″]NDAAFN[PyrS2(3)][3Thi][Bta]Q-NH2
modifications: staple 1-4, 4-11
B4: I-1249 (peptide)
peptide: Ac-[αAllylPro]D[tBuAla][B5(4)]DDAAFL[PyrS2″][Phe(2-Cl)][Bta][Thr(ol)]
modifications: staple 1-4, 4-11
B5: I-1250 (peptide)
peptide: Ac-[αAllylPro]D[tBuAla][B5(4)]DDAAFL[PyrS2″][Phe(2-Cl)][Bta]-Alaol
modifications: staple 1-4, 4-11
B6: I-1203 (peptide)
peptide: Ac-[αAllylPro]D[tBuAla][B5″]DDAAFL[PyrS2(3)][Phe(2-CN)][Bta]Q-NH2
modifications: staple 1-4, 4-11
B7: I-1253 (peptide)
peptide: mPEG2-[αAllylPro]D[tBuAla][B5(5)]DDAAFN[PyrS2″][Phe(2-Cl)][Bta][dT]-NH2
modifications: staple 1-4, 4-11
B8: I-1218 (peptide)
peptide: Ms-[αAllylPro]D[tBuAla][B5″]DDAAFN[PyrS2(3)][3Thi][Bta]Q-NH2
modifications: staple 1-4, 4-11; not fully specified; printed as MeSO2-PL3-Asp-Npg-B5-Asp-Asp-Ala-Ala-Phe-Asn-PyrS2-3Thi-BztA-Gln-NH2
B9: I-1221 (peptide)
peptide: Ac-[αAllylPro]N[tBuAla][B5(4)]DDAAFL[PyrS2″][3Thi][Bta]Q-NH2
modifications: staple 1-4, 4-11
B10: I-1248 (peptide)
peptide: Ac-[αAllylPro]D[tBuAla][B5(4)]DDAAFL[PyrS2″][Phe(2-Cl)][Bta]Q-NHEt
modifications: staple 1-4, 4-11
B11: I-1219 (peptide)
peptide: Ms-[αAllylPro]D[tBuAla][B5″]D[TfeGA]AAFN[PyrS2(3)][3Thi][Bta]Q-NH2
modifications: staple 1-4, 4-11; not fully specified
B12: I-778 (peptide)
peptide: Ac-[αAllylPro]D[tBuAla][B5(13)]DDAAFN[PyrS2][2Thi][Bta]Q-NH2
modifications: staple 1-4, 4-11
B13: I-779 (peptide)
peptide: Ac-[αAllylPro]D[tBuAla][B5(13)]DDAAFN[PyrS2][2Thi][Bta]H-NH2
modifications: staple 1-4, 4-11
B14: I-792 (peptide)
peptide: Ac-[αAllylPro]D[tBuAla][B5(3)]DDAAFN[PyrS2][3Thi]WH-NH2
modifications: staple 1-4, 4-11
B15: I-781 (peptide)
peptide: Ac-[αAllylPro]D[tBuAla][B5(13)]DDAAFN[PyrS2][Phe(2-OMe)][Bta]H-NH2
modifications: staple 1-4, 4-11
B16: I-780 (peptide)
peptide: Ac-[αAllylPro]D[tBuAla][B5(13)]DDAAFN[PyrS2][Phe(2-OMe)][Bta]Q-NH2
modifications: staple 1-4, 4-11
B17: I-786 (peptide)
peptide: Ac-[αAllylPro]D[tBuAla][B5(3)]DEAAFN[PyrS2][3Thi][Bta]-NH2
modifications: staple 1-4, 4-11
B18: I-777 (peptide)
peptide: Ac-[αAllylPro]D[tBuAla][B5(13)]DDAAFN[PyrS2]F[Bta]H-NH2
modifications: staple 1-4, 4-11
B19: I-789 (peptide)
peptide: Ac-[αAllylPro]D[tBuAla][B5(3)]DDAAFN[PyrS2][3Thi][1Nal]H-NH2
modifications: staple 1-4, 4-11
B20: I-788 (peptide)
peptide: Ac-[αAllylPro]D[hLeu][B5(3)]DDAAFN[PyrS2][3Thi][Bta]H-NH2
modifications: staple 1-4, 4-11
B21: I-793 (peptide)
peptide: Ac-[αAllylPro]D[tBuAla][B5(3)]DDAAFN[PyrS2][Bta][Bta]H-NH2
modifications: staple 1-4, 4-11
B22: I-784 (peptide)
peptide: Ac-[αAllylPro]D[tBuAla][B5(3)]DDAAFN[PyrS2][Phe(2-Cl)][Bta]H-NH2
modifications: staple 1-4, 4-11
B23: I-776 (peptide)
peptide: Ac-[αAllylPro]D[tBuAla][B5(13)]DDAAFN[PyrS3][3Thi][Bta]H-NH2
modifications: staple 1-4, 4-11
B24: I-785 (peptide)
peptide: Ac-[αAllylPro]D[tBuAla][B5(3)]DDAAFN[PyrS2][3Thi][Bta]-NH2
modifications: staple 1-4, 4-11
B25: I-787 (peptide)
peptide: Ac-[αAllylPro]D[hLeu][B5(3)]DDAAFN[PyrS2][3Thi][Bta]Q-NH2
modifications: staple 1-4, 4-11
B26: I-775 (peptide)
peptide: Ac-[αAllylPro]D[tBuAla][B5(13)]DDAAFN[PyrS3][3Thi][Bta]H-NH2
modifications: staple 1-4, 4-11
B27: I-790 (peptide)
peptide: Ac-[αAllylPro]D[tBuAla][B5(3)]DDAAFN[PyrS2][3Thi][2Nal]H-NH2
modifications: staple 1-4, 4-11
B28: I-783 (peptide)
peptide: Ac-[αAllylPro]D[tBuAla][B5(13)]DDAAFN[PyrS2][Phe(2-Cl)][Bta]Q-NH2
modifications: staple 1-4, 4-11
B29: I-782 (peptide)
peptide: Ac-[αAllylPro]D[tBuAla][B5(13)]DDAAFN[PyrS2][Phe(2-Me)][Bta]H-NH2
modifications: staple 1-4, 4-11
B30: I-468 (peptide)
peptide: Ac-[αAllylPro]DI[B5(6)]DDAAFN[S8]F[Bta]Q-NH2
modifications: staple 1-4, 4-11; also: staple isomer composition: later-eluting HPLC peak
notes: Staple isomer composition: later-eluting HPLC peak

The binders below were run against T1, B-cat-Halo (assay: cell-based or functional assay).

NanoBRET Abs IC50 | Binder
17.3 µM | B1
7.5 µM | B2
27.8 µM | B3
25.2 µM | B4
> 20 µM | B5
10 µM | B6
> 20 µM | B7
> 20 µM | B8
23.4 µM | B9
29.7 µM | B10
> 20 µM | B11

These binders were tested against T2, B-cat-Halo (assay: cell-based or functional assay).

NanoBRET Abs IC50 | Binder
11.2 µM | B12
18.7 µM | B13
> 20 µM | B14
31 µM | B15
20.7 µM | B16
29.3 µM | B17
19.8 µM | B18
> 20 µM | B19
21.6 µM | B20
> 20 µM | B21
14.5 µM | B22
45.7 µM | B23
21.6 µM | B24
30.7 µM | B25
> 20 µM | B26
> 20 µM | B27
6.2 µM | B28
12.2 µM | B29

Each binder was assayed against T3, full-length beta-Catenin (Uniprot ID …) (assay: fluorescence polarization competition: full-length beta-catenin + 5FAM-TCF4(10-53) probe, peptide titrated).
Experimental: The plate was incubated protected from light for 60 minutes at 20° C. prior to read. Reads were performed on a CLARIOstar plate reader (BMG Labtech) in duplicate, and data were fitted to a 1:1 binding model with hill slope using an in-house script. All provided concentrations are final concentrations.

EC50 | Binder
0.027 µM | B30
